Data taken from patent US20210238308A1.

Tests used:
Experiment in all cases: SPR, Protein L capture
[1] = biological target: PRYSPRY domain of human TRIM21 with N-terminal 6xHis tag (human)
human FcRn (human) = human FcRn (human) (UniProt P55899)
[2] = biological target: PRYSPRY domain of mouse TRIM21 with N-terminal 6xHis tag (mouse)
PRYSPRY domain of mouse TRIM21 with N-terminal 6xHis tag (mouse), sequence (chain, as listed by the source limits assumed): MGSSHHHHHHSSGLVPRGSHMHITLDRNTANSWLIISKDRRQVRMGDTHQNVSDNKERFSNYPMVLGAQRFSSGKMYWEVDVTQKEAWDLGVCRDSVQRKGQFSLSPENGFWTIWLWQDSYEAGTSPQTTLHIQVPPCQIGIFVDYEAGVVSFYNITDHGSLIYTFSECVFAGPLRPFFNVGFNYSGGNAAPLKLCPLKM

PRYSPRY domain of human TRIM21 with N-terminal 6xHis tag (human), sequence (chain, as listed by the source limits assumed): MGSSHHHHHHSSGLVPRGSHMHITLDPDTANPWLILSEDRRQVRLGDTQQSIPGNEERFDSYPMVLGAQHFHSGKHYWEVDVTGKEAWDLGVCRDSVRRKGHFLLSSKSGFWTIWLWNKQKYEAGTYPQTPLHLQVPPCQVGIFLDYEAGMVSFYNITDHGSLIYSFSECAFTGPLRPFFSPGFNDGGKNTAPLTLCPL
UniProt P55899, sequence (P55899 24-290 limits assumed, form in doubt, chain 1 of 2): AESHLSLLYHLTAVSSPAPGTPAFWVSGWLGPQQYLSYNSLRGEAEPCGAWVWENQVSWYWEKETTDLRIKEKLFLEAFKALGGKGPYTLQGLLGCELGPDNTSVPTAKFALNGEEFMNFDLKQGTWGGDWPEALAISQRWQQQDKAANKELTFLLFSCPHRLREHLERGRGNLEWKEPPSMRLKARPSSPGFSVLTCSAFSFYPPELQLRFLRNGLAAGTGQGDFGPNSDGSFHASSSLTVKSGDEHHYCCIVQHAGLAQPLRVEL
UniProt P55899, sequence (chain, as listed by the source limits assumed, form in doubt, chain 2 of 2): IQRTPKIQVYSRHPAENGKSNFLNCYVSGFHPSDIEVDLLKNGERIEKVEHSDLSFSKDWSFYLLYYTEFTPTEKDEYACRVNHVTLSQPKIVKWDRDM

Row | Substance | hTRIM21 binding level ratio (variant/control antibody) [1] | hFcRn binding level ratio (variant/control antibody) (human FcRn (human)) | also measured
1 | MRAH-G1d/MRAL-KT0 E345K (antibody) | 0.096 |  | 
2 | MRAH-G1d/MRAL-KT0 L309Q (antibody) |  | 0.09 | 
3 | MRAH-G1d/MRAL-KT0 L432A (antibody) |  | 0.08 | 
4 | MRAH-G1d/MRAL-KT0 L432R (antibody) | 0.099 |  | 
5 | MRAH-G1d/MRAL-KT0 N434H (antibody) |  |  | mTRIM21 binding level ratio (variant/control antibody) [2]: 0.097
